From US20030022265 come the findings set out here.

Data set [1] deals with T1, fusion protein comprising Golgi recognition signal and transmembrane domain of yeast Golgi protein Ste13, cleavage site of yeast α-factor, and yeast invertase (UniProt P33894).
T1 sequence: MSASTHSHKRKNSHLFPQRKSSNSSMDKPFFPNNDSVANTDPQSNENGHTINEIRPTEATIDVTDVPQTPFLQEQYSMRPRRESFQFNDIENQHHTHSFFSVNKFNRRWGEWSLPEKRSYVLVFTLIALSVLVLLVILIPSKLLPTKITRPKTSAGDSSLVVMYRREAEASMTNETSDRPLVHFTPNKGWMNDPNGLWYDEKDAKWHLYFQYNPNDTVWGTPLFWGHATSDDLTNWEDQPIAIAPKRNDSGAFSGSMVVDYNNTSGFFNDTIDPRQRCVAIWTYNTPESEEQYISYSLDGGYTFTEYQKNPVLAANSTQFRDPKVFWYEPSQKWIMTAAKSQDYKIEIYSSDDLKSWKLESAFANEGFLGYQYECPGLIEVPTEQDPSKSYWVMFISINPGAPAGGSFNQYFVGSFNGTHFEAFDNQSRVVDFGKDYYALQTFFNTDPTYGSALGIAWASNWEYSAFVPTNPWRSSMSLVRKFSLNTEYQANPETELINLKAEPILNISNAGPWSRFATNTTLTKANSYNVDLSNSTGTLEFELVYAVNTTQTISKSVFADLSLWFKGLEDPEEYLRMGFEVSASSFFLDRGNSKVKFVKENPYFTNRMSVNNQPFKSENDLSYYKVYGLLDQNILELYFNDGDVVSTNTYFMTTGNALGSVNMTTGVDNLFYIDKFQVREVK

Data set [2] relates to plasmid library of pADH-SteSubInv with random substitution of the 5th and 6th amino acids of cleavage region of α-factor.
In data set [3] the test system is product of plasmid pADH-SteInv.

In the case of Kex2, the “viability of cotransformed suc2, kex2 mutant yeast on sucrose-containing plate” value in data set [1] is “transformants of test group 1 were survived both on glucose-containing and sucrose-containing plates”; in data set [3], “transformants of test groups 2 to 4 were not able to grow on sucrose plates”. Moreover, the “residues found at the randomised substrate positions in colonies grown on sucrose plates” value in data set [2] was “Various amino acids such as D, E, A, V, P, S, Q, K, R, and H were found at the 6th amino acid, while, solely R was found at the 5th amino acid”.
